{"source": "paper PMC5613972", "about": "“A specific single-stranded DNA induces a distinct conformational change in the nucleoid-associated protein HU”", "target": "T1, TtHU (Thermus thermophilus, UniProt P19436 2-97)", "T1 sequence": "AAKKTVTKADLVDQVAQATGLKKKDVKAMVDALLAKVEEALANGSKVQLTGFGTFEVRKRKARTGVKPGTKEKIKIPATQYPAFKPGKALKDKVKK", "test": "EMSA; 1 uM DNA; EMSA: 20 mM Tris-HCl pH 7.5, 100 mM KCl, 37 °C, 1 h; CD: 20 mM phosphate pH 7.2, 100 mM KCl, 20 °C, 10 uM TtHU", "details": "protein: recombinant, tags: none stated (pET-11a), chain copies: 2", "data": [{"binder": "GGCCCCAGTGCTGCAATGATACCGCGAGAC (ssDNA)", "note": "[oligo A]", "values": [{"measurement": "binding result", "setting": "single strand", "value": "binds"}]}, {"binder": "GTCTCGCGGTATCATTGCAGCACTGGGGCC (ssDNA)", "note": "[oligo B]", "values": [{"measurement": "binding result", "setting": "single strand", "value": "binds"}]}, {"binder": "oligo AB (dsDNA) DNA 1: GGCCCCAGTGCTGCAATGATACCGCGAGAC DNA 2: GTCTCGCGGTATCATTGCAGCACTGGGGCC", "values": [{"measurement": "binding result", "setting": "duplex of complementary oligos", "value": "binds"}]}, {"binder": "ATGACAACTAAAGCAACACCCAAAACA (ssDNA)", "note": "[oligo C]", "values": [{"measurement": "binding result", "setting": "single strand", "value": "binds"}]}, {"binder": "TGTTTTGGGTGTTGCTTTAGTTGTCAT (ssDNA)", "note": "[oligo D]", "values": [{"measurement": "binding result", "setting": "single strand", "value": "binds"}]}, {"binder": "oligo CD (dsDNA) DNA 1: ATGACAACTAAAGCAACACCCAAAACA DNA 2: TGTTTTGGGTGTTGCTTTAGTTGTCAT", "values": [{"measurement": "binding result", "setting": "duplex of complementary oligos", "value": "binds"}]}]}
